Test results from US20100099619A1.

Molecular target: neuropeptide Y4 receptor
Test: competition vs [125I]-hPP, Y4-transfected CHO-K1 membranes

neuropeptide Y4 receptor, sequence (P50391 whole entry): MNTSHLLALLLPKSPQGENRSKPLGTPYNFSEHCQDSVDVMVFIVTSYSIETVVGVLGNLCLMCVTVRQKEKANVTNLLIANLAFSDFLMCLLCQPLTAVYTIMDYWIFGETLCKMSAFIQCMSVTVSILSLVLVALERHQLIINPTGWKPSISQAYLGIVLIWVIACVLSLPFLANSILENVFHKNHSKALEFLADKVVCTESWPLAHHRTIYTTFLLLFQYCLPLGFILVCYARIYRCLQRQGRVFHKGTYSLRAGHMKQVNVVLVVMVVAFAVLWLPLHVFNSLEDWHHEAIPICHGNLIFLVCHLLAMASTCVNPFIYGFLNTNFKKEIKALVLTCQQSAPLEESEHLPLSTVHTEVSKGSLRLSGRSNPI

Y4 RBA [nM] | Substance
4.5 | PYY (human peptide YY) (peptide; modification not given)
54 | PYY(3-36) (peptide; modification not given)
39 | NPY (human neuropeptide Y) (peptide; modification not given)
